Laboratory results reported in patent US5451411A, “Methods and compositions for the oral delivery of therapeutic agents” (University of Washington, priority 1993, dated 1995).

Key:
[1] = system: cells of epithelial origin, including human and rodent derived intestinal cells; details: cited from earlier work
gastrointestinal tract = details: sequential chemotherapeutic protocols; cited from earlier work
[2] = system: mouse anti-TGF-β1 monoclonal antibody, 1D11; test: ELISA measured binding activity (immunoreactivity) of TGF-β1; details: solution without alginate, up to 0.14% w/v additive
Method: The ability of released TGF-β1 from both untreated and acid treated beads (as described above) to be recognized (bound) by a monoclonal antibody was assayed by ELISA as follows. An enzyme linked immunosorbent assay (ELISA) was used to quantitate the amount of immunoreactive TGF-β1 released from the untreated (PBS) and acid treated (HCl) alginate beads. The ELISA was based on the ability of a mouse anti-TGF-β1 monoclonal antibody, 1D11 (Bristol-Myers Squibb, Seattle, WA), to bind to the TGF-β1 molecule. When the 1D11 antibody was coated on 96-well immunoassay plates it captured TGF-β1 from the applied sample and standard solutions. Captured TGF-β1 was then bound by biotinylated 1D11 antibody which in turn was bound by a horseradish peroxidase/avidin D conjugate (Vector Labs cat #A-2004). A color reaction occurred by adding a chromophore/substrate solution of 3,3',5,5'-tetramethylbenzidine in CPB containing hydrogen peroxide. The reaction was stopped with the addition of 1 N sulfuric acid and the A450 was determined by a plate reader. Concentrations of the unknown samples were quantified relative to a TGF-β1 standard curve run on the same plate.
The immunoreactivity of TGF-β1 in solution in the presence of anionic amino acids, polyanions and polycations was studied using the ELISA procedure described in Example 2. To 1 mg/mL solutions of TGF-β1 in 5 mM HCl was added from 0 to 0.14%(w/v) of glutamic acid, aspartic acid, poly-L-aspartic acid (PLAA, Mw=13 kDa), sodium carboxymethyl cellulose (Na CMC, high viscosity), or polyacrylic acid (PAA, 2, 90 or 750 kDa). The reactivity of the TGF-β1 was then determined by the ELISA procedure, as described in Example 2.
Next, the ability of the additives to […] was investigated. Alginate solutions were prepared in accordance with the procedure of Example 1, incorporating 50 μg of TGF-β1, 0-0.15% (w/v) of sodium alginate and 0.1-1.0 mg (up to 0.125% w/v) of PAA (750 kDa), PLAA (13 kDa), NaCMC high viscosity or glutamic acid. The immunoreactivity of TGF-β1 was determined by ELISA as described in Example 2.
Alginate beads were prepared according to the procedure of Example 1 incorporating 50 μg TGF-β1 and 0.1-1.0 mg of additives. […] In addition, Poly-L-Lysine (PLL;123 kDa) was incorporated as a potential polycationic competitor. The additives were incorporated at an alginate:additive w/w ratio of from 75:10 to 75:1 as indicated below in Table 3.
To further assess the effect of amount of PAA incorporation on immunoreactivity of released TGF-β1, alginate beads were prepared by incubating TGF-β1 and PAA (90 kDa) for either 5 or 60 minutes (see FIG. 7) in w/w ratios of 75:1, 75:6 and 75:10, followed by dilution, addition of alginate, and bead formation in 1% CaCl2. The beads were acid treated in 0.1 N HCl at 37° C. for 30 minutes and then incubated at 37° C. in PBS, pH 7.4.

[3] = type: physicochemical
Method: Beads prepared in accordance with the procedure of Example 1 and containing 50 μg of ^125 I-TGF-β1 in 3.75-7.5 mg (original weight of alginate) were transferred to 15.0 mL polypropylene tubes containing 13.0 mL of PBS or of 0.1 N HCl at 37° C. In some cases, 1% BSA was added to the release media. The polypropylene tubes were gently shaken using a orbital shaker (200 rotations/minutes). At selected times, 100 μL aliquots were taken and counted for radioactivity. Care was taken so that aliquots contained no beads or bead fragments. The cumulative ^125 I-TGF-β1 released from the beads was calculated after correcting for volume changes. After 24 hours, the beads in 0.1 N HCl were transferred to PBS.
Alginate beads containing TGF-β1 and 90 kDa PAA (75:10 w/w in alginate:PAA) were prepared following the procedure of Example 1, and were acid treated for 30 minutes at 37° C. in 0.1 N HCl, as described in Example 2. The beads were then placed in PBS, pH 7.4, and the immunoreactivity of released TGF-β1 was determined by ^125 I radiolabel and ELISA, as described in Example 2. In addition, a growth inhibitory assay (GIA) was used to determine the bioactivity of the TGF-β1. The GIA measures the ability of TGF-β1 to inhibit the growth of mink lung epithelial cells (ATCC #CCL64) (T. Ikedaet al., "Human Transforming Growth Factor Type β2: Production By a Prostatic Adenocarcinoma Cell Line, Purification and Initial Characterization," Biochemistry 26:2406-2410 (1987)). The activity of the growth factor was determined by the inhibitory response of the cells to different concentrations of TGF-β1. Cell viability was based on the enzymatic cleavage by metabolically active cells of a tetrazolium salt into an orange/red formazan product. Prior to the assay cells were trypsinized and plated in a 96-well flat bottomed plate (Costar) at a concentration of 1000 cells/well. After allowing the cells to attach, samples containing the TGF-β1 and a reference standard were diluted to concentrations ranging from 1000 to 1.95 pg/ml and added to the wells. The cells were incubated for four days after which time a 100 μL solution containing 25 μg of sodium 3"-[1-(phenylamino)-carbonyl]-3,4-tetrazolium-bis(4-methoxy-6-nitro) benzene sulfonic acid hydrate (Diagnostic Chemicals, Ltd.) and 5 mM phenazine methosulfate (Aldrich) in media was added to each well. The cells were then incubated for 7 hours and the plates read on a microplate reader at an absorbance of 450 nm with a 630 nm reference filter. The specific activity of a sample was calculated relative to the reference material.

[4] = system: mouse anti-Oncostatin-M antibody, 11R2; test: ELISA of immunoreactive Oncostatin-M released from alginate beads; type: binding; details: PBS
Method: Following the procedure of Example 1, alginate beads were prepared from 800 μl of an aqueous solution containing 25 μg of Oncostatin-M (site source) and 3750 μg of sodium alginate (Sigma, Low Viscosity). To a portion of the solution was added 300 μg of PAA (Jannsen, 90 kDa) prior to bead formation. Samples of the beads, both with and without added PAA, were subject to acid treatment by incubating the beads in 0.1 N HCl at 37° C. for 30 minutes, as described in Example 2. The beads were then placed in PBS, and the percentage amount of immunoreactive Oncostatin-M was determined by ELISA assay following the procedure of Example 2 using a mouse anti-Oncostatin-M antibody, 11R2 (Bristol-Myers Squibb, Seattle, WA) as the capture antibody and biotinylated 1R10 mouse anti-Oncostatin-M antibody (Bristol-Myers Squibb, Seattle, WA) as the probe, followed by horseradish peroxidase/avidin D. The results are shown in FIG. 8, in which (.quadrature.) represents acid treated beads containing PAA, represents bead containing PAA which were not acid treated, represents beads without PAA which were acid treated, and represents beads without PAA which were not acid treated.

[5] = system: mouse antiamphiregulin monoclonal antibody, 6R1C1; test: ELISA of immunoreactive Amphiregulin released from alginate beads; type: binding; details: PBS
Method: The procedure of Example 10 was repeated substituting 25 μg of Amphiregulin for the Oncostatin-M of Example 11 and using a mouse antiamphiregulin monoclonal antibody, 6R1C1 (Bristol-Myers Squibb, Seattle, WA) as the capture antibody, followed by a goat anti-mouse horseradish peroxidase probe (Southern Biotech). The results are shown in FIG. 9 in which the symbols have the meanings of FIG. 8.

For TGF-β, the Growth inhibition [1] is given as “inhibit the growth of many cells of epithelial origin”.

In the case of `Nc1ccn([C@@H]2O[C@H](CO)[C@@H](O)[C@@H]2O)c(=O)n1` [cytosine arabinoside], the Gastrointestinal toxic alterations (gastrointestinal tract) is given as “surface and glandular epithelial atypia, immaturity and necrosis”.

For `O=c1[nH]c(=O)n([C@H]2C[C@H](O)[C@@H](CO)O2)cc1F` [floxuridine], the Gastrointestinal toxic alterations (gastrointestinal tract) is given as “surface and glandular epithelial atypia, immaturity and necrosis”.

In the case of `CO[C@@]12[C@H](COC(N)=O)C3=C(C(=O)C(C)=C(N)C3=O)N1C[C@@H]1N[C@@H]12` [mitomycinC], the Gastrointestinal toxic alterations (gastrointestinal tract) is given as “surface and glandular epithelial atypia, immaturity and necrosis”.

For `N[C@@H](CCC(=O)O)C(=O)O` [glutamic acid, L-glutamic acid, reference compound], the “Interference of additive with ELISA measured binding activity of TGF-β1” value [2] was “interfered to a lesser extent”.

In the case of “^125 I-TGF-β1: TGF-β1 radioiodinated by a modified chloramine-T method”, the “125I-TGF-β1 released in 0.1 N HCl” value ([3]; 0.1 N HCl, 24 hours, 37° C.) is reported as “essentially no”, the “Further 125I-TGF-β1 release” value ([3]; PBS, even after 72 hours) is reported as “no further ^125 I-TGF-β1 was released” and the “Lag period before release” value ([3]; PBS, pH 7.4, 37° C.) is reported as 4 h. The “Cumulative 125I-TGF-β1 released (plateau)” value ([3]; PBS, pH 7.4, 37° C., after 20 hours, no acid treatment, no PAA) was 81% and the “125I-TGF-β1 released after transfer from 0.1 N HCl to PBS” value ([3]; transferred to PBS after 24 hours in 0.1 N HCl, in 2.5 hours) was 100%.

For `N[C@@H](CC(=O)O)C(=O)O` [aspartic acid, L-aspartic acid, reference compound], the “Interference of additive with ELISA measured binding activity of TGF-β1” value [2] was “interfered to a lesser extent”.

B1: Oncostatin-M: 25 μg of Oncostatin-M encapsulated in alginate beads with or without PAA (protein, UniProt P13725 26-221, looked up)
Oncostatin-M: AAIGSCSKEYRVLLGQLQKQTDLMQDTSRLLDPYIRIQGLDVPKLREHCRERPGAFPSEETLRGLGRRGFLQTLNATLGCVLHRLADLEQRLPKAQDLERSGLNIEDLEKLQMARPNILGLRNNIYCMAQLLDNSDTAEPTKAGRGASQPPTPTPASDAFQRKLEGCRFLHGYHRFMHSVGRVFSKWGESPNRSRR
modifications: alginate bead encapsulation
notes: 25 μg of Oncostatin-M encapsulated in alginate beads with or without PAA
With B1 the “Immunoreactive Oncostatin-M released, acid treated beads containing PAA” value ([4]; PAA 90 kDa) was 85%, the “Immunoreactive Oncostatin-M released, non acid treated beads containing PAA” value ([4]; PAA 90 kDa) was 38% and the “Immunoreactive Oncostatin-M released, "non acid treated beads with PAA" (second value)” value [4] was 20%. For the same molecule, the “Immunoreactive Oncostatin-M released, acid treated beads without PAA” value [4] was 18%.

B2: Amphiregulin: 25 μg of Amphiregulin encapsulated in alginate beads with or without PAA (protein, UniProt P15514 101-187, looked up)
Amphiregulin: SVRVEQVVKPPQNKTESENTSDKPKRKKKGGKNGKNRRNRKKKNPCNAEFQNFCIHGECKYIEHLEAVTCKCQQEYFGERCGEKSMK
modifications: encapsulated in alginate beads
notes: 25 μg of Amphiregulin encapsulated in alginate beads with or without PAA
With B2 the “Immunoreactive Amphiregulin released, acid treated beads containing PAA” value [5] was 67%, the “Immunoreactive Amphiregulin released, acid treated beads without PAA” value [5] was 31% and the “Immunoreactive Amphiregulin released, non acid treated beads containing PAA” value [5] was 52%. For the same molecule, the “Immunoreactive Amphiregulin released, non acid treated beads without PAA” value [5] was 22%.
